The assay concerns the target T1, soluble elk/Fc fusion protein (rat elk extracellular domain fused to human IgG1 Fc) (rat; human, UniProt P09759 18-540; P01857 99-330 = IgG part, limits assumed).
T1 construct: extracellular domain;domain: Fc region; Expressed transiently in mammalian host cells and purified on protein A sepharose
Put plainly: Scatchard analysis; elk/Fc at various concentrations on CV1-EBNA-1 cells expressing LERK-5, detected with 125I-mouse anti-human IgG. As to the method: CV1-EBNA-1 cells in 10 cm² dishes were transfected with the recombinant expression vector containing LERK-5 DNA. The CV-1/EBNA-1 cell line (ATCC CRL 10478) constitutively expresses EBV nuclear antigen-1 driven from the CMV immediate-early enhancer/promoter. CV1-EBNA-1 was derived from the African Green Monkey kidney cell line CV-1 (ATCC CCL 70), as described by McMahan et al. (*EMBO J*. 10:2821, 1991).
The transfected cells were cultured for 24 hours, and the cells in each dish then were split into a 24-well plate. After culturing an additional 48 hours, a binding assay was conducted by the following procedure. The transfected cells (about 4×10^4 cells/well) were washed with BM-NFDM, which is binding medium (RPMI 1640 containing 25 mg/ml bovine serum albumin, 2 mg/ml sodium azide, 20 mM Hepes pH 7.2) to which 50 mg/ml nonfat dry milk has been added. The cells then were incubated for 1 hour at 37° C. with various concentrations of the elk/Fc fusion protein prepared in Example 2 or the hek/Fc fusion protein prepared in Example 3. Cells then were washed and incubated with a constant saturating concentration of a ^125I-mouse anti-human IgG in binding medium, with gentle agitation for 1 hour at 37° C. After extensive washing, cells were released via trypsinization. […]

T1 sequence (P09759 other isoform, or with tags, fused parts or gaps limits assumed): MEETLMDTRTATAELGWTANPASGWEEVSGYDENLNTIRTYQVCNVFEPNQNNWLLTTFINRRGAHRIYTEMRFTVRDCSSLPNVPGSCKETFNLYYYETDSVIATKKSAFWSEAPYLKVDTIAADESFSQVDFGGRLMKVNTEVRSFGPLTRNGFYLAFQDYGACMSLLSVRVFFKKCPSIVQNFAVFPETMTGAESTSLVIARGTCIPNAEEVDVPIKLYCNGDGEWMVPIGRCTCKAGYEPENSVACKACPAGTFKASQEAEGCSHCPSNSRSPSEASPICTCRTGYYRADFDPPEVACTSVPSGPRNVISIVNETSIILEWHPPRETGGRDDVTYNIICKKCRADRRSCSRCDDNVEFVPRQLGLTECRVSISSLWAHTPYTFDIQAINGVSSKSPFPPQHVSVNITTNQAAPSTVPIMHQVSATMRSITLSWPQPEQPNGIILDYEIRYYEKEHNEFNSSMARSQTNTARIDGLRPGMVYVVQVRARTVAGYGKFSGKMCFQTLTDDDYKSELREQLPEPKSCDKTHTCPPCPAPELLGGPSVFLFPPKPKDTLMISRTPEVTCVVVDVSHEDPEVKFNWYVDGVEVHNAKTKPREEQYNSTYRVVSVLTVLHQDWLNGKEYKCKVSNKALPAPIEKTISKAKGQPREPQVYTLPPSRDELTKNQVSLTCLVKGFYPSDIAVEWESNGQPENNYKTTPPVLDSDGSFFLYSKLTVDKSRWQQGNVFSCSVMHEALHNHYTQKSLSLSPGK

B1: human LERK-5 (recombinant, full length, expressed on the surface of transfected CV1-EBNA-1 cells) (ligand)
chain: KSIVLEPIYWNSSNSKFLPGQGLVLYPQIGDKLDIICPKVDSKTVGQYEYYKVYMVDKDQADRCTIKKENTPLLNCAKPDQDIKFTIKFQEFSPNLWGLEFQKNKDYYIISTSNGSLEGLDNQEGGVCQTRAMKILMKVGQDASSAGSTRNKDPTRRPELEAGTNGRSSTTSPFVKPNPGSSTDGNSAGHSGNNILGSEVALFAGIASGCIIFIVIIITLVVLLLKYRRRHRKHSPQHTTTLSLSTLATPKRSGNNNGSEPSDIIIPLRTADSVFCPHYEKVSGDYGHPVYIVQEMPPQSPANIYYKV
notes: The whole coding region of clone λ6 was expressed from pDC410 in CV1-EBNA-1 cells; also called clone λ6 protein
For the molecule B1, the Ka amounted to 1.05e+09 M⁻¹.

The values are drawn from patent publication US6479459 (IMMUNEX, dated 2002).
